According to patent publication US10689421B2, “Bacteriocin-producing Paenibacillus ehimensis and application thereof” (National Pingtung University of Science and Technology, priority 2018, dated 2020):

Legend:
[1] = test system: E. coli; assay: Antibacterial activity of Peocin expressed in E. coli BL21 (DE3)/pET-28-peocin; assay type: cell-based
Procedure: Add 30 μl E. coli BL21 (DE3)/pET-28-peocin bacterial liquid and 3 μl Kanamycin (100 mg/ml) to 3 ml LB culture broth and incubate for 24 hours. After incubation, add 0.5 ml medium and 50 μl Kanamycin (100 mg/ml) in 50 ml LB culture broth, incubate for 3 hours and add 50 μl 1M IPTG to induce expression of high-level production of protein. Incubate for 9 hours, measure the OD600 nm absorbance of bacterial broth, concentrate the bacterial liquid to OD600 nm=60/ml, wash with 1×PBS for once, place the bacterial broth in centrifuge and centrifuge it for 15 minutes with the speed of 1300 rpm. Remove the supernatant, add 2 ml 1×PBS and lyse by ultrasonic machine under 5 seconds on/5 seconds off cycle for 5 minutes, then again place the bacterial broth in centrifuge and centrifuge it for 20 minutes under 4° C. with the speed of 4000 rpm. Extract the supernatant and filter it using 0.45 μm syringe filter, then preserve the sample in 4° C. freezer to await for further steps. Load E. coli BL21 (DE3)/pET-28 and E. coli BL21 (DE3)/pET-28-peocin in the same SDS-PAGE to confirm that the transformed plasmid do express antibacterial protein in high-level production, then test antibacterial activity and measure inhibitory zone of E. coli BL21 (DE3)/pET-28 and E. coli BL21 (DE3)/pET-28-peocin protein sample on TSB medium containing E. coli to confirm the antibacterial ability of expressed protein.

[2] = test system: E. coli; assay: Evaluation of antibacterial protein temperature tolerance; assay type: physicochemical; settings: 30, 40, 50, 60, 70, 80, 90, 100 and 121° C. for 1 hour; control 4° C.
Procedure: Place 100 μl Peocin under 30° C., 40° C., 50° C., 60° C., 70° C., 80° C., 90° C., 100° C. and 121° C. respectively and stand for an hour, all treatment group except 121° C. group is put in the dry bath incubator, which can set to temperature 30° C.˜100° C. The 121° C. group is put in the sterilizer which can proceed wet heat sterilize at 121° C. Use Peocin stored under 4° C. as control group, and use the TSB agar plate containing E. coli to measure antibacterial activity and inhibitory zone diameter after an hour.

B1: Peocin: bacteriocin; DNA starvation/stationary phase protection protein produced by Paenibacillus ehimensis NPUST-1, amino acid SEQ ID NO: 1 (protein, listed as Paenibacillus ehimensis)
chain: MNEQLTVLLNNQIANWSVLYVKLHNYHWYVKGPQFFTLHTKFEELYTEAALHVDALAERLLALGGKPVATMSGSLRLASVREAEGEESAERMVAALVNDFTLIIGELKSGMKYAESVQDETTGDLLLAIHSSLEKHVWMLNAFLGN
- antibacterial activity when expressed in E. coli ([1]; inside E. coli BL21 (DE3)/pET-28-peocin after induction): no antibacterial activity
- antibacterial activity of recombinant protein released outside of E. coli ([1]; supernatant of lysed E. coli BL21 (DE3)/pET-28-peocin, TSB medium containing E. coli): antibacterial effect
- antibacterial activity after temperature treatment [2]: maintain original antibacterial activity
